Data as given in US20080233118A1 (Novartis, published 2008).

Target: T1, human M-CSF (macrophage colony stimulating factor) (human, UniProt P09603 33-190, limits assumed)
T1 sequence: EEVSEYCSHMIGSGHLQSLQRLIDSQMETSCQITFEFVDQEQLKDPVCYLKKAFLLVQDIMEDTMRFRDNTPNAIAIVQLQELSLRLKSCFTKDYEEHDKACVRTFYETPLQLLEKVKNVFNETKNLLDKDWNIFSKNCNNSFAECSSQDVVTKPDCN
Assay: cell-based or functional assay

B1: M-CSF-specific murine antibody RX1 (antibody, V domains shown)
VH: DVQLQESGPGLVKPSQSLSLTCTVTDYSITSDYAWNWIRQFPGNKLEWMGYISYSGSTSYNPSLKSRISITRDTSKNQFFLQLNSVTTEDTATYYCASFDYAHAMDYWGQGTSVTVSS
VL: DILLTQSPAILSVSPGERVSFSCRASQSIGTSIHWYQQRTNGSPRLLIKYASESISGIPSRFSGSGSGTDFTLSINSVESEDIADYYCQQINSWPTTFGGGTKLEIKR
In the case of B1, the “EC50 of M-CSF neutralization” value is reported as 2 ng/mL.
